Measurements taken from patent publication US20230295345A1 (published 2023).
Where two headings read alike, the source gives them in different places.

Columns and labels:
[1] = biological target: T1, cynomolgus monkey TMPRSS6 expressed on HEK293T cells (CynoTMPRSS6-(His)6); experiment: cell surface ELISA
T1 chain: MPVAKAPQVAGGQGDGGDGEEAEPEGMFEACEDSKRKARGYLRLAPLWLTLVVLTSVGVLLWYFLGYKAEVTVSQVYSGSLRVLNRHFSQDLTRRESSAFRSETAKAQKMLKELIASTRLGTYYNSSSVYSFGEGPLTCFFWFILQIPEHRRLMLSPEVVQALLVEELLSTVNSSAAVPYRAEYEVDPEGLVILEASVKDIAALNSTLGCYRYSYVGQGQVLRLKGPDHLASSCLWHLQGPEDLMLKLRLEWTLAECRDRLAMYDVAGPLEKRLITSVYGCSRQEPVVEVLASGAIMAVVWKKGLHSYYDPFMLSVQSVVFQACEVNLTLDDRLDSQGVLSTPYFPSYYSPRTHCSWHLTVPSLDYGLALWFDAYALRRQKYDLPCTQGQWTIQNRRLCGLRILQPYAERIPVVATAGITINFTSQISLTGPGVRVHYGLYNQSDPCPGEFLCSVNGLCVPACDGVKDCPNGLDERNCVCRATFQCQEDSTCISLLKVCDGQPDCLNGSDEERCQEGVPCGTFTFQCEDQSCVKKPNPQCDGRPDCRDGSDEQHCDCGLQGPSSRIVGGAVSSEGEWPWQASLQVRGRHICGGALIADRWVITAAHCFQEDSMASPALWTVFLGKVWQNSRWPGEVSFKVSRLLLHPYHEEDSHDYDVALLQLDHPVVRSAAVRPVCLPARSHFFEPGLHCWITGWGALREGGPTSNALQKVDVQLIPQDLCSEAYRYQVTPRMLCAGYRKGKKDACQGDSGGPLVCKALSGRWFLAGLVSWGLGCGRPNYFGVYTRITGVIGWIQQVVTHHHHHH

[2] = biological target: T2, human TMPRSS6 (matriptase-2) expressed on HEK293T cells (HuTMPRSS6-(His)6) (UniProt Q8IU80 10-811); experiment: FACS
T2 chain: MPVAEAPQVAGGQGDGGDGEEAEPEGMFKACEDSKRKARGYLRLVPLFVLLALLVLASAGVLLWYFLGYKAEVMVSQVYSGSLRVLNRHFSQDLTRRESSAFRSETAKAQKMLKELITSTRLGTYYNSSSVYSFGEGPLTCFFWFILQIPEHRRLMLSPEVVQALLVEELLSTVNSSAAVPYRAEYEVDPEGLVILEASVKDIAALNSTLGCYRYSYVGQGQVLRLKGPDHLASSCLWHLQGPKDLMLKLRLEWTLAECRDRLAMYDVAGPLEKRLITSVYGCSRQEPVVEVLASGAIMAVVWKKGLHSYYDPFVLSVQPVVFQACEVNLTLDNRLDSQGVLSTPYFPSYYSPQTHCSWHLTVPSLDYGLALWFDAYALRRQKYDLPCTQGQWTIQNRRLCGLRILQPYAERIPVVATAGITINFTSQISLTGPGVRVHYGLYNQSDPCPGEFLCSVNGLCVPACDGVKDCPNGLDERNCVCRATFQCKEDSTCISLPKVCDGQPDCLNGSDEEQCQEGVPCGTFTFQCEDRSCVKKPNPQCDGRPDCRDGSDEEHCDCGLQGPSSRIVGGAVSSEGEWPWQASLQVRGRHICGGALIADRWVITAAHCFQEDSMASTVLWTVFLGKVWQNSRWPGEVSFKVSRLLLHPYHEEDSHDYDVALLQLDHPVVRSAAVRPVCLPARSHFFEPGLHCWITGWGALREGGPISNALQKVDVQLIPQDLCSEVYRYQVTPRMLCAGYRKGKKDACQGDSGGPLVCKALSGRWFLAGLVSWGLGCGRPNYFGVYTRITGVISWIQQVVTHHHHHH

[3] = biological target: T2, human TMPRSS6 (matriptase-2) expressed …; experiment: cell surface ELISA
[4] = biological target: T3, mouse TMPRSS6 expressed on HEK293T cells (MoTMPRSS6-(His)6) (UniProt Q9DBI0 1-811); experiment: cell surface ELISA
T3 chain: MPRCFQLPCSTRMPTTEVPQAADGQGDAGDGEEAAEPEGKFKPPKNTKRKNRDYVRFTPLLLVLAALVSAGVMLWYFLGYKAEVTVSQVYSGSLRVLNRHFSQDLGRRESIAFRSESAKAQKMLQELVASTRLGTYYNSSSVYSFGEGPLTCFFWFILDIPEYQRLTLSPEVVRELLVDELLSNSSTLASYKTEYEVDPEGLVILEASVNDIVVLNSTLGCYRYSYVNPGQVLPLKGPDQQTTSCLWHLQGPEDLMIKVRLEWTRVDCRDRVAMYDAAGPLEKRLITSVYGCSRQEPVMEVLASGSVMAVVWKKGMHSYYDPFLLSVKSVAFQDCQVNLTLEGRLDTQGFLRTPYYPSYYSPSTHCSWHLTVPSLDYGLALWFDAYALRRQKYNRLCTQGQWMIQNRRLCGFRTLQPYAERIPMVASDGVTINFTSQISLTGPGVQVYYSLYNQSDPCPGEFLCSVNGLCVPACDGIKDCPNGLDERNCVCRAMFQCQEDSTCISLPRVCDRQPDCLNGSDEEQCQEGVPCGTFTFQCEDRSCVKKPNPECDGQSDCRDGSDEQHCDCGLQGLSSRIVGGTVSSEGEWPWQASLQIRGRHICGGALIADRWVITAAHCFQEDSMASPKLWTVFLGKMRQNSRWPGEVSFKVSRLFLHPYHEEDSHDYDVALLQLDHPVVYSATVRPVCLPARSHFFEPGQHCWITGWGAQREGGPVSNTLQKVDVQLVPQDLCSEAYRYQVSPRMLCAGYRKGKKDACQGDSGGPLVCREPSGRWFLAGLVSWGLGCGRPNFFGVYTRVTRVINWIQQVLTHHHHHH

[5] = biological target: T3, mouse TMPRSS6 expressed on HEK293T …; experiment: cell surface ELISA
[6] = biological target: T1, cynomolgus monkey TMPRSS6 expressed on …; experiment: cell surface ELISA

B1: MWTx-002 anti-TMPRSS6 antibody (antibody, V domains shown)
VH: EVQLQQSGAELVKPGASVKLSCTASGFNIKDYYIHWVKERTEQGLEWFGRIDPEDGESEYAPKFQGKATLTADTSSNTAYLQLSSLTSEDTAVYYCTRGDSMMVTYFDYWGQGTTLTVSS
VL: DIVMTQSHKFMSTSVGDRVSITCKASQDVSTAVAWYQQKPGQSPKLLIYWAFTRHTGVPDRFTSTGSGTDYALTISSVQAEDLALYYCQQHYRSPWTFGGGTKLEIKR
EC50 [1]: 0.06 µg/mL | EC50 [2]: 0.2 µg/mL | EC50 [3]: 0.04 µg/mL

B2: MWTx-003 anti-TMPRSS6 antibody (antibody, V domains shown)
VH: EVQLQQSGAELVKPGASVKLSCTASGFNIEDYYIHWVKERTEQGLEWIGRIDPEDGETTYAPQFQGKATIIPDTSSNTAYMQLSSLTSEDAAVYYCARSIYLDPMDYWGQGTSVTVSS
VL: DIVMTQSHKFMSTSVGDRVSITCKASQDVTTAVAWYQQKPGQSPKILIYWATTRHTGVPDRFTGSISGTTYILTISSVQAEDLALYYCQQHYSTPYTFGGGTKLEIKR
EC50 [4]: 0.07 µg/mL | EC50 [1]: 0.09 µg/mL | EC50 [2]: 0.2 µg/mL | EC50 [3]: 0.05 µg/mL

B3: hzMWTx-003Var anti-TMPRSS6 antibody (antibody, V domains shown)
VH: QVQLVQSGAEVKKPGASVKVSCKASGFNIEDYYMHWVRQAPGQRLEWMGRIDPEDAETTYSPKFQGRVTIIPDTSANTAYMELSSLRSEDTAVYYCARSIYLDPMDYWGQGTLVTVSS
VL: DIQMTQSPKSLSASVGDRVTITCRASQDVTTALAWYQQKPGQSPKLLIYWATTRHSGVPSRFSGSGSGTDFTLTISSLQPEDFATYYCQQHYSTPYTFGQGTKLEIKR
EC50 [5]: 0.31 µg/mL | EC50 [6]: 0.03 µg/mL

B4: MWTx-001 anti-TMPRSS6 antibody (antibody, V domains shown)
VH: QVQLQQPGAELAKPGASVKMSCKASGYTFTSYWITWVKQRPGQDLEWIGNIYPGSGSTYYNEKFKSKATLTVDTSSRTAYMQLSSLTSADSAVYYCAPYDSDYAMDYWGQGTSVTVSS
VL: DIKMTQSPSSMYASLGERVTITCKASQDINNYLSWFQQKPGKSPKTLIYRANRLVDGVPSRVSGSGSGQDYSLTISSLEYEDVGIYFCLQYDEFPLTFGAGTKLELKR
EC50 [4]: 0.25 µg/mL | EC50 [1]: 0.1 µg/mL | EC50 [2]: 1 µg/mL | EC50 [3]: 0.2 µg/mL

B5: hzMWTx-002Var anti-TMPRSS6 antibody (antibody, V domains shown)
VH: EVQLVQSGAEVKKPGASVKVSCKASGFNIKDYYIHWVRQATGQGLEWMGRIDPEDAESEYAPKFQGRVTITADTSTDTAYMELSSLRSEDTAVYYCTRGDSMMVTYFDYWGQGTLVTVSS
VL: DIQMTQSPSSLSASVGDRVTITCKASQDVSTAVAWYQQKPGKAPKLLIYWAFTRHTGVPSRFSGSGSGTDYALTISSLQPEDFATYYCQQHYRSPWTFGGGTKVEIKR
EC50 [6]: 0.06 µg/mL

B6: hzMWTx-001Var anti-TMPRSS6 antibody (antibody, V domains shown)
VH: EVQLVQSGAEVKKPGASVKVSCKASGYTFTSYWITWVRQAPGQRLEWIGNIYPGSGSTYYNEKFKSKATITRDTSSRTAYMELSSLRSEDTAVYYCAPYDADYAMDYWGQGTLVTVSS
VL: DIQMTQSPSSLSASVGDRVTITCKASQDISNYLSWFQQKPGKAPKLLIYRANRLVEGVPSRFSGSGSGTDFTLTISSLQPEDFATYFCLQYDEFPLTFGGGTKVEIKR
EC50 [5]: 0.03 µg/mL | EC50 [6]: 0.003 µg/mL
